Source: patent US20170165339A1 (IMMATICS BIOTECHNOLOGIES, published 2017)

Molecular target: HLA-A*02 (human)
Experiment: UV peptide-exchange ELISA, yield grade

SLTEVSLPL [SLTEVSLPL (SEQ ID NO: 45)] gave a peptide exchange yield of 50 to 75%.
